± gives the standard deviation of the averaged measurements.
Each sequence was assayed on ATP (assay: switch fluorescence ratio, 500 uM ATP over buffer (Cy3 cluster intensity, sum of 5 cycles each) (fold (ratio)); higher = stronger signal-on switching upon ATP binding; sequences stand for … in TCGTCGGCAGCGTCAGATGTGTATAAGAGACAGTTTTTTTTTTTTTTTTTTTTTTTTT…TC). Details: aptamer strand: ATP DNA aptamer (quencher-CACCTGGGGGAGTATTGCGGAGGAAGG + anchor), 100 nM annealed; ATP concentration: 500 uM.
Procedure, shortened: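 Between each of five buffer/ATP cycles, the flow-cell was stripped with NaOH and re-annealed. Each cycle imaged Cy3-labelled switching-strand clusters, annealed to 100 nM quencher-labelled ATP aptamer on a modified Illumina MiSeq flow-cell, first in selection buffer and then after 15 min with 500 uM ATP at 22 °C. The fluorescence ratio is summed target-cycle over summed buffer-cycle Cy3 intensity per cluster, averaged per switch-domain sequence, with clusters outside 100-1000 RFU excluded.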
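Further: ATP exposure 15 min at 22 °C before imaging.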

| Sequence | switch fluorescence ratio |
| --- | --- |
| GATGGGGCGC | 0.975 ± 0.069 |
| GATGGGGCGT | 0.989 ± 0.055 |
| GATGGGGTCC | 0.949 ± 0.015 |
| GATGGGGTGG | 1 ± 0.016 |
| GATGGGTACG | 1.02 ± 0.042 |
| GATGGGTCGT | 1 ± 0.033 |
| GATGGGTCTG | 0.948 ± 0.014 |
| GATGGGTTCT | 0.9926 ± 0.0044 |
| GATGGGTTGA | 1.06 ± 0.03 |
| GATGGGTTGG | 0.9899 ± 0.008 |
| GATGGTAGCT | 1.04 ± 0.074 |
| GATGGTATGG | 1.007 ± 0.0052 |
| GATGGTGAGA | 1.02 ± 0.065 |
| GATGGTTAAC | 1.01 ± 0.0045 |
| GATGGTTGTG | 0.95 ± 0.037 |
| GATGTACAGT | 1.035 ± 0.0072 |
| GATGTAGGAA | 1.013 ± 0.0065 |
| GATGTATGTA | 0.973 ± 0.021 |
| GATGTATTCG | 1.001 ± 0.0089 |
| GATGTCAAGA | 1.01 ± 0.023 |
| GATGTCCCGG | 0.987 ± 0.022 |
| GATGTCGTGC | 1.03 ± 0.031 |
| GATGTGAGCC | 1.01 ± 0.018 |
| GATGTTAATA | 0.985 ± 0.085 |
| GATGTTAGTG | 1.003 ± 0.008 |

| Sequence | switch fluorescence ratio |
| --- | --- |
| GATGTTCAGG | 0.9875 ± 0.0011 |
| GATGTTGTAT | 1.01 ± 0.021 |
| GATGTTGTGG | 0.9751 ± 0.0029 |
| GATGTTTAAT | 0.991 ± 0.029 |
| GATGTTTGCG | 0.994 ± 0.034 |
| GATGTTTTAC | 0.998 ± 0.025 |
| GATTAAAGTC | 1.03 ± 0.034 |
| GATTAACGGT | 1.012 ± 0.0084 |
| GATTAAGGT | 0.992 ± 0.014 |
| GATTACAGTG | 1.02 ± 0.047 |
| GATTACGGGA | 1.052 ± 0.0098 |
| GATTAGAAGT | 0.996 ± 0.016 |
| GATTAGGCAT | 0.996 ± 0.039 |
| GATTAGGTGA | 1.06 ± 0.014 |
| GATTATAGTA | 0.952 ± 0.027 |
| GATTATCATT | 0.9669 ± 0.0093 |
| GATTATTCTG | 0.966 ± 0.039 |
| GATTATTTGA | 0.992 ± 0.061 |
| GATTCACGGT | 1.01 ± 0.02 |
| GATTCACGTT | 1.052 ± 0.0043 |
| GATTCAGCGG | 0.97 ± 0.015 |
| GATTCAGGAA | 1 ± 0.047 |
| GATTCAGGTA | 1.01 ± 0.026 |
| GATTCCAGTT | 1.01 ± 0.032 |
| GATTCGTGAC | 1.03 ± 0.052 |

| Sequence | switch fluorescence ratio |
| --- | --- |
| GATTCTCTAT | 1.008 ± 0.0033 |
| GATTCTTGTT | 1.02 ± 0.046 |
| GATTGAATGG | 0.985 ± 0.055 |
| GATTGAATTT | 0.989 ± 0.032 |
| GATTGAGGAA | 0.9864 ± 0.0061 |
| GATTGATGGT | 0.992 ± 0.021 |
| GATTGCAGCG | 1.002 ± 0.0016 |
| GATTGCCTGT | 0.981 ± 0.029 |
| GATTGCGAGA | 1.01 ± 0.036 |
| GATTGCGGGC | 1.03 ± 0.011 |
| GATTGGAGGG | 0.997 ± 0.026 |
| GATTGGCACC | 0.965 ± 0.014 |
| GATTGGCAGC | 1.015 ± 0.0035 |
| GATTGGGGGC | 1.04 ± 0.12 |
| GATTGGGTTC | 0.9685 ± 0.0036 |
| GATTGGTTGT | 1.01 ± 0.022 |
| GATTGTAAAG | 1.021 ± 0.01 |
| GATTGTGACG | 1.06 ± 0.057 |
| GATTGTGCCG | 1.03 ± 0.061 |
| GATTGTTAGA | 0.9891 ± 0.0081 |
| GATTGTTCGT | 1.031 ± 0.0085 |
| GATTTAACGG | 1.01 ± 0.038 |
| GATTTAAGTT | 0.9988 ± 0.0098 |
| GATTTACGAT | 1.026 ± 0.0019 |
| GATTTAGGTG | 1.12 ± 0.0065 |

| Sequence | switch fluorescence ratio |
| --- | --- |
| GATTTCCCCG | 1.18 ± 0.028 |
| GATTTCCTGG | 1.01 ± 0.02 |
| GATTTGAATT | 0.977 ± 0.025 |
| GATTTGAGCG | 0.9852 ± 0.0046 |
| GATTTGAGTG | 0.959 ± 0.027 |
| GATTTGCGGG | 0.9833 ± 0.0069 |
| GATTTGTTTT | 0.994 ± 0.013 |
| GATTTTAGAG | 0.9809 ± 0.003 |
| GATTTTATTG | 1.01 ± 0.017 |
| GATTTTCAGA | 0.998 ± 0.027 |
| GATTTTCCTA | 0.9608 ± 0.0014 |
| GATTTTGGGT | 1.02 ± 0.038 |
| GATTTTGGTC | 0.967 ± 0.054 |
| GATTTTGTAG | 1.01 ± 0.028 |
| GATTTTGTCT | 0.9923 ± 0.0099 |
| GATTTTGTTT | 0.996 ± 0.027 |
| GATTTTTCAA | 1 ± 0.021 |
| GATTTTTGCC | 1.01 ± 0.031 |
| GATTTTTTAG | 0.998 ± 0.018 |
| GATTTTTTAT | 0.999 ± 0.058 |
| GCAAAAAGGA | 1.6 ± 0.89 |
| GCAAAAAGGT | 0.996 ± 0.029 |
| GCAAAAGAGA | 0.994 ± 0.032 |
| GCAAAAGGAA | 0.975 ± 0.022 |
| GCAAAAGGGC | 1.02 ± 0.014 |

Reference: the supplement of paper PMC10126150
